Results: patent publication US20150104459A1 (published 2015)

B1: TCN-537 (3194_D21) (antibody, V domains shown)
VH: QVQLQQWGSGLLKPSETLSLTCAVYGGSFRDDYWTWIRQPPGKGLEWIGEINHSGRTNYNPSLKSRVTISVDTSLKQFSLKVISVTAADTAVYYCARGTSHVSRYFDWLPPTNWFDPWGQGTQVTVSS
VL: DIVLTQSPGTLSLSPGERATLSCRASQSVSSSYLAWYQQKPGQAPRLVMYGAATRATGIPDRFSGSGSGPDFTLTISRLEPEDFAMYYCQQYGNSPITFGQGTRLEIK
B2: TCN-538 (3206_O17) (antibody, V domains shown)
VH: QITLKESGPTLVKPTQTLTLTCVFSGFSLSITGVRVGWIRQPPGKALEWLALISWDDEKHYSPSLQSRLTITKDTSKNQVVLTMTNLDPVDTATYYCARSTDRGHVLRYFGWMLPGDAFDVWGQGTMVTVSS
VL: DIVMTQSPDFLPVSLGERATINCKSSQRVLYSSNNKNYLAWYQLKPGQPPKLIIYWASTRESGVPDRFSGSGSGTEFTLTISSLQAEDVAVYYCQQYYSRPYTFGQGTKLEIK
B3: TCN-540 (5060_F05) (antibody, V domains shown)
VH: QVQLVQSGGGVVQPGRSLRLSCAASGFTFSSYAMHWVRQAPGKGLEWVAIISYDGNDQYYTDSVKGRFTISRDSSKVYLQMHRLRPEDTAVYYCAKEFETSGYFHGSFDYWGQGILVTVSS
VL: QSALTQPASVSGSPGQSITISCTGTSSDVGGYNYVSWYQQHPGKAPKLLIYEVTNWPSGVSNRFSGSKSGNTASLTISGLQAEDEADYYCSSYAGSSTWVFGGGTRVTVL
B4: TCN-542 (5079_A16) (antibody, V domains shown)
VH: QVQLQESGPGLVKPSQTLSLTCTVSGGSISSGNYYWNWVRQHPGKGLEWIGYIYYRGSTFYNPSLKSRVTISIDTSKNQFSLRLSSVTAADTAVYYCAKDTRSSLDNYQYGMDVWGQGTTVTVSS
VL: QTVVTQEPSLTVSPGGTVTLTCASSTGAVTSSYFPNWFQQKPGQAPRPLIYSTTIRHSWTPARFSGSLLGGKAALTLSGVQPEDEADYYCLLYSGGDPVAFGGGTKLTVL
B5: TCN-543 (5081_G23) (antibody, V domains shown)
VH: QVHLVQSGAEVRKPGDSVKVSCKTSGYTFSTYPVAWVRQVPGQGLEWMGWISTYNGNTNFAQNFQGRVTLTTDTTTNTAYMEVRSLKFDDTAVYYCARVEGSYRDFWNNQNRFDPWGQGTLVTVSS
VL: SYVLTQPPSVSVAPGQTARISCGGSNIGGKSVHWYQQKPGQAPVLVVYDDSGRPSGIPERFSGSNSGDTATLTISRVEAGDEADYFCQVWDNFGGVFGTGTKVTVL
B6: TCN-545 (5082_I15) (antibody, V domains shown)
VH: QVQLQQWGAGLLKPSETLSLSCAVFGGSFSDYYWTWIRQPPGKGLEWIGEIKHSGRTNYNPSLESRVTISVDTSKNQFSLKLSSVTAADTAIYYCARGTDPDTEGYCRSGSCSAFDFWGQGTLVTVSS
VL: EIVLTQSPGTLSLSPGERATLSCRASHFVNYRSLAWYQQTPGQVPRLLIYGASTRATGIPDRFSGSGSGTDFTLTISRLEPEDFAVYFCQQYGGSPRYTFGQGTRLEIK
B7: TCN-546 (5089_L08) (antibody, V domains shown)
VH: QVQLQQWGAGLLKPSETLSLTCGVYGGSLSDYYWSWIRQPPGKGLEWIGEINHSGGTNYNPSLKRRVTISVDTSKKQFSLKMNSVTAADTAVYYCARGTDPDTEVYCRAGNCAAFDFWGQGTLVTVSS
VL: EIVLTQSPGTLSLSPGERATLSCRASHFVIGRAVAWYQQKPGQAPRLLIYGASSRATGIPDRFSGSGSGTDFTLTISRLETEDFAVFYCQHYGSSPRYAFGQGTKLEIK
B8: TCN-551 (5243_D01) (antibody, V domains shown)
VH: EVQLVQSGSEVKKPGESLKISCKGSGYSFSNYWIGWVRHMPGKGLEWMGIIYPGDSDTRYSPSFQGQVTMSADKSSSTVYLQWSSLKASDTAIYYCARRGGHSFGYGSGGDTHSEFDSWGQGTLVTVSS
VL: QSVLTQSPSVSAAPGQKVTISCSGSDSNIGDYFVCWYQHLPGKPPQLLIYENNKRPSGIPDRFSGSKSGTSATLGITGIQTGDEADYYCATWDGSLSAWVFGGGTKLTVL
B9: TCN-552 (5249_I23) (antibody, V domains shown)
VH: QVQVVQSGAEVKKPGSSVRVSCQASGGTFMNYAIIWVRRAPGQGLEWMGGIIPVFPTPNYAQMFQGRVTISTDESRSTSFLELTNLRYEDTAVYYCARRIYHGGNSGFDFWGQGTLVTVSS
VL: EIVLTQSPATLSLSPGERATLSCRASQSVGNYLAWYQQKPGQAPRLLIYDSSNRAPGIPARFSGSGSGTDFTLTISSLAPEDFAVYYCQQRSKWPPMYSFGHGTKLEIK
B10: TCN-553 (5261_C18) (antibody, V domains shown)
VH: QVQVVQSGTEVKKPGSSVKVSCQTSGGRFMSYAITWVRQAPGQGLEWMGGIVPVFGTANYAQKFQGRVTITTDDSTRTAYMELSSLRSEDTAVYYCGFRYGSGYGFDSWGQGTLVTVSS
VL: EIVLTQSPGTLSLSPGERATLSCRASQSVSSSYLAWYQKKPGQAPRLLIYGASTRATGIPDRFTGSGSGTDFTLSISRLEPEDFAVYYCQHFGTSVFTFGGGTKVEIK
B11: TCN-555 (5246_L16) (antibody, V domains shown)
VH: QVQLVQSGAEVKRPGSSVKVSCTASGGIFRKNAISWVRQAPGQGLEWMGGIIAVFNTANYAQKFQNRVKITADESGNTAYMELSSLTSDDTAVYYCASHPKYFYGSGSYPDFWGQGTLVTVSS
VL: QSALTQPRSVSGSPGQSITISCTGGSSDIGASNSVSWYQQHPGKAPKLVIFDVTERPSGVPHRFSGSKSGNTASLTVSGLQPDDEADYFCCAYGGKYLVVFGGGTKVTVL
B12: TCN-558 (5248_H10b) (antibody, V domains shown)
VH: QVQLVQSGSEVKKPGTSVKVSCTASGSVFTNYGISWVRQAPGQGLEWMGGIIPLFGAAKYAQKFQGRVTITADESTKTVYMELSRLTSKDTAIYFCAKAPRVYEYYFDQWGQGTPVTVSS
VL: EIVMTQFPATLSVSPGERVTLSCRASQSVSNNLAWYQQKPGQPPRLLIYDASTRATGVPAKFSGTGSGTEFTLSISSLQSEDFAVYYCQQYHNWPPSYSFGLGTKLEIK
B13: TCN-556 (5089_K12) (antibody, V domains shown)
VH: QVQLVQSGAEVKKPGASVKVSCKASGYTFIGYDMHWVRQAPGQGLEWMGWINAKRGGTNYAQKFQGRVTMTRDTSISTAYMELNSLRSDDTAVYYCARGVGSRTTIFGVLNPEFDYWGQGTLVTVSS
VL: QSALTQPPSASGSPGQSVTISCTGSSSDVGGYDYVSWYQQHPGKAPKLLIYEVTKRPSGVPDRFSGSKSGNTASLTVSGLQAEDEADYYCSSYAGNYNHVFGPGTKVTVL
B14: TCN-560 (5084_P10) (antibody, V domains shown)
VH: EVQLVESGGGLVQPGGSLRLSCAASGFIFRNYWMSWVRQAPGKGLEWVANIKQDGREKYYVDSLRGRVNISRDNAENSLYLHMNSLRVEDTAVYFCARARMVVVTGDGFDVWGHGTMVTVSS
VL: DIQMTQSPSSLSASVGDRVTITCRASQNIKRYFNWYQQKPGKAPKLLIYAASNLENGVPSRFSGSGSGTDFTLTISSLQPEDFATYYCQQSFSKSWTFGQGTNVDIK
B15: TCN-556 (5089_K12) (antibody, V domains shown)
VH: B13 VH
VL: B13 VL
B16: TCN-560 (5084_P10) (antibody, V domains shown)
VH: B14 VH
VL: B14 VL

target: hemagglutinin (HA) of live influenza A/Solomon Islands/3/06 (H1N1) virus (influenza A virus A/Solomon …); experiment: cell-based or functional assay

Binder | % Neutralization [%]
B1 | 0
B2 | 21
B3 | 3
B4 | 99
B5 | 98
B6 | 88
B7 | 98
B8 | 99
B9 | 0
B10 | 44
B11 | 49
B12 | 84

target: hemagglutinin (HA) of live influenza A/California/4/09 (H1N1) virus (influenza A virus A/California/04/2009 …); experiment: cell-based or functional assay

Binder | % Neutralization [%]
B4 | 15
B7 | 0

target: hemagglutinin (HA) of live influenza A/Wisconsin/67/05 (H3N2) virus (influenza A virus A/Wisconsin/67/2005 …); experiment: cell-based or functional assay

Binder | % Neutralization [%]
B1 | 0
B2 | 0
B3 | 98
B4 | 8
B5 | 73
B6 | 99
B7 | 100
B8 | 6
B9 | 14
B10 | 5
B11 | 5
B12 | 7

target: recombinant soluble homotrimeric HA of A/northern shoveler/California/HKWF115/2007 (H6N1) (Influenza A virus A/northern …); experiment: HA microarray, BCC supernatant

Binder | Trimeric HA Binding RLU [RLU]
B13 | 11900
B14 | 42300

target: recombinant soluble homotrimeric HA of A/duck/Yangzhou/02/2005 (H8N4) (Influenza A virus …); experiment: HA microarray, BCC supernatant

Binder | Trimeric HA Binding RLU [RLU]
B13 | 16900
B14 | 44700

target: recombinant soluble homotrimeric HA, A/Anhui/1/05 (H5N1) (influenza A virus A/Anhui/1/2005 (H5N1)); experiment: microarray, trimeric HA, transfection supernatant

Binder | Trimeric HA Binding RLU [RLU]
B15 | 13800
B16 | 18600

target: recombinant soluble homotrimeric HA, A/chicken/Vietnam/NCVD-016/08 (H5N1) (influenza A virus …); experiment: microarray, trimeric HA, transfection supernatant

Binder | Trimeric HA Binding RLU [RLU]
B15 | 22700
B16 | 18200

target: recombinant soluble homotrimeric HA, A/Hong Kong/156/97 (H5N1) (influenza A virus A/Hong Kong/156/97 …); experiment: microarray, trimeric HA, transfection supernatant

Binder | Trimeric HA Binding RLU [RLU]
B15 | 24600
B16 | 29300

target: recombinant soluble homotrimeric HA, A/northern shoveler/California/HKWF115/2007 (H6N1) (influenza A virus A/northern …); experiment: microarray, trimeric HA, transfection supernatant

Binder | Trimeric HA Binding RLU [RLU]
B15 | 34800
B16 | 35900

target: recombinant soluble homotrimeric HA, A/Netherlands/219/03 (H7N7) (influenza A virus A/Netherlands/219/03 …); experiment: microarray, trimeric HA, transfection supernatant

Binder | Trimeric HA Binding RLU [RLU]
B15 | 43600
B16 | 32100

target: recombinant soluble homotrimeric HA, A/duck/Yangzhou/02/2005 (H8N4) (influenza A virus …); experiment: microarray, trimeric HA, transfection supernatant

Binder | Trimeric HA Binding RLU [RLU]
B15 | 22400
B16 | 27900
